In paper PMC3381998 one finds percent of SEPT7 depleted on immunodepletion of SEPT6, percent of SEPT7 that interacts with SEPT6 and percent of total SEPT6 precipitated with SEPT7 data, which are given here for two substances.

In test [1] the target is SEPT6 (UniProt Q14141). Kind of test: co-IP.
Test [2] has as its target SEPT7 (UniProt Q16181). In words: co-IP.

Chain of SEPT6 (Q14141 whole entry): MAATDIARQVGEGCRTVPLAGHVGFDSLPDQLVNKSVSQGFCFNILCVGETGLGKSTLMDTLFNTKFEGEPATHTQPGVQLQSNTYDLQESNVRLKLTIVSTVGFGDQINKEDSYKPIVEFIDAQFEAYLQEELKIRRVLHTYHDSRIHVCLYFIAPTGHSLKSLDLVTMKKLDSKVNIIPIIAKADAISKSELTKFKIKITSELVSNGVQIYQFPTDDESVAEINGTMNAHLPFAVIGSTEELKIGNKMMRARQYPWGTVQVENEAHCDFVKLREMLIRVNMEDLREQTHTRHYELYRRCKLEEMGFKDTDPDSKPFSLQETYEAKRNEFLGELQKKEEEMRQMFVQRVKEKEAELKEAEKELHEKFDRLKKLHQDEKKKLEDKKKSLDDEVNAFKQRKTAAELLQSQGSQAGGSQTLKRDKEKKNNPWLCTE
Chain of SEPT7 (Q16181 whole entry): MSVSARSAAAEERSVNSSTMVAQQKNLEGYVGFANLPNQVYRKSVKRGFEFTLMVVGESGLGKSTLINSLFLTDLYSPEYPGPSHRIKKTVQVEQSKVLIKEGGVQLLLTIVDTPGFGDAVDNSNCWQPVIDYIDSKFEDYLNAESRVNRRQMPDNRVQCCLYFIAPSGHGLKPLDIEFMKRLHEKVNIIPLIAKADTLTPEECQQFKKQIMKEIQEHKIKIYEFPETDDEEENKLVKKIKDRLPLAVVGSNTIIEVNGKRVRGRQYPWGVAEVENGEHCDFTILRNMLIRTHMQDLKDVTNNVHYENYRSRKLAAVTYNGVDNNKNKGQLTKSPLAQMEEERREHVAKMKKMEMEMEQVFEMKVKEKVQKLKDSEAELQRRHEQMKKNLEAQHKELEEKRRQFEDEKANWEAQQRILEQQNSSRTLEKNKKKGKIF

Regarding “SEPT7 (from UniProt Q16181 1-437) (natural protein)”, in test [1], the percent of SEPT7 depleted on immunodepletion of SEPT6 worked out at 30% and the percent of SEPT7 that interacts with SEPT6 stood at 43%.

In the case of “SEPT6 (from UniProt Q14141 1-434) (natural protein)”, in test [2], the percent of total SEPT6 precipitated with SEPT7 came to 24%.
